Measured values: US6835382B2, “Ii peptide therapeutics to enhance antigen presentation” (University of Massachusetts, priority 1996, dated 2004)
Non-standard residues stand in square brackets, D forms with d. Hyp = O=C(O)[C@@H]1C[C@@H](O)CN1

T1: murine E^d MHC class II allele (Mus musculus, UniProt P01904+P01915)
T1 sequence (P01904 26-255): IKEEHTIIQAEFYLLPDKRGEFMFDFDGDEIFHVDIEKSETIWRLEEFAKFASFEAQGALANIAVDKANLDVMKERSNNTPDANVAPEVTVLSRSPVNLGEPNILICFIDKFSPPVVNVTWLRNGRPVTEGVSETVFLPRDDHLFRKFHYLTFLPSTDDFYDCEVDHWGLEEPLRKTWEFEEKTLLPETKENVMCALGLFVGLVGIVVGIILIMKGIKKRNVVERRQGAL
T1 sequence (P01915 27-264 limits assumed): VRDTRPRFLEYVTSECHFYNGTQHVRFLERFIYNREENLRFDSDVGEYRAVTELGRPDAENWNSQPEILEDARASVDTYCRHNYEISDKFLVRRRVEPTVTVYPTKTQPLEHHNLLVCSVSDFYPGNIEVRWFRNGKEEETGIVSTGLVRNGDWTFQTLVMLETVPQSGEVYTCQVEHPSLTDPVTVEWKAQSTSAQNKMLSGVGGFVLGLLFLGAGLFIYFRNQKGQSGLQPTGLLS

B1: AE143 (peptide)
peptide: Ac-YRMKL[Hyp]KSAK-NH2
SMILES: CSCC[C@H](NC(=O)[C@H](CCCNC(=N)N)NC(=O)[C@H](Cc1ccc(O)cc1)NC(C)=O)C(=O)N[C@@H](CCCCN)C(=O)N[C@@H](CC(C)C)C(=O)N1C[C@H](O)C[C@H]1C(=O)N[C@@H](CCCCN)C(=O)N[C@@H](CO)C(=O)N[C@@H](C)C(=O)N[C@@H](CCCCN)C(N)=O
B2: AE381 (peptide)
peptide: LRMKLPK
modifications: head-to-tail cyclization: the amino terminal amino group is coupled through an amide linkage to the carboxyl terminal group

Tests used:
[1] = molecular target: T1, murine E^d MHC class II allele; experiment: simultaneous assay, E^d allele (A20 APC, G28.C9 T hybridoma, HEL106-116; HT-2 [3H]TdR readout); format: cell-based; set-up: The A20 and CH27 B cell lymphoma lines express H-2^d and H-2^k alleles, respectively; endogenous in cells; host or cells: A20 B cell lymphoma (mitomycin C-treated or paraformaldehyde-fixed); conditions: Table 12, supernatant 1:2
Summary of the method: (§1)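 Read-out is [3H]TdR incorporation into HT-2 indicator cells exposed to supernatant from a 24 h primary culture. That culture combined mitomycin C-treated APC (5×10^6 cells/mL, 0.025 mg/mL mitomycin C, 20 min, 37° C), peptide, effector compound and T hybridoma, all added at once.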

[2] = molecular target: T1, murine E^d MHC class II allele; experiment: AE101 series peptide prepulse assay, E^d allele; format: cell-based; conditions: Table 35; AE101 series peptide prepulse 64 μM; antigenic peptide 0.3 μM; supernatant dilution 1:4
Description: (§2) Table 35: Activities of multiple substitution analogs of AE235, targeting the E^k and E^d allele, in an AE101 series peptide prepulse assay. In this assay the concentration of AE101 series peptides used during the prepulse was 64 μM. The concentrations of antigenic peptides were 0.3 μM for Ed and 0.4 μM for E^k. The supernatant dilutions taken into the HT-2 cell assay was 1:4 for E and 1:2 for E^k. The AE381 peptide is a head-to-tail cyclization: the amino terminal amino group is coupled through an amide linkage to the carboxyl terminal group. The AE 382 peptide is a side-to-tail cyclization: the epsilon amino group of Lys^4 is coupled through an amide linkage to the carboxyl terminal group.
(§3) AE101 series peptide prepulse assays were carried out in the E^d and E^k systems as described for simultaneous competition assays with the following modifications. Fixed APC were first incubated for 6 h at 1×10^6DMEM-5% FCS with 64 μM of each AE101 series peptide or with PBS. The APC were then washed four times with ten volumes of DMEM-5% FCS, and were cocultured with T hybridoma cells and the indicated submaximal doses of antigenic peptides used in the simultaneous competition assays. The baseline T cell response was measured by culturing T hybridoma cells with antigenic peptide and PBS-pretreated APC.

[3] = test system: murine E^k MHC class II allele; experiment: AE101 series peptide prepulse assay, E^k allele; format: cell-based; conditions: Table 35; AE101 series peptide prepulse 64 μM; antigenic peptide 0.4 μM; supernatant dilution 1:2
Description: as §2, §3

[4] = test system: murine E^k MHC class II allele; experiment: simultaneous assay, E^k allele (CH27 APC, TPc9.1 T hybridoma, THMCC82-103 or PGCC81-104); format: cell-based; conditions: Table 12, supernatant 1:4
Summary of the method: as §1

[5] = molecular target: soluble HLA-DR1 (HLA-DR alpha truncated after Asn192 with a C-terminal nine amino acid HA epitope tail; HLA-DR1 beta truncated after Lys198), made in Baculovirus-infected insect cells (human); experiment: exchange ELISA: tethered HLA-DR1 preloaded with unlabeled hMBP(90-102) 50 uM, washed; biotin-hMBP(90-102) 50 uM alone, no AE peptide, 1 h 37 C
[6] = molecular target: soluble HLA-DR1 (HLA-DR alpha truncated after Asn192 with a C-terminal nine amino acid HA epitope tail; HLA-DR1 beta truncated after Lys198), made in Baculovirus-infected insect cells (human); experiment: release ELISA as Table 36; unlabeled hMBP(90-102) 250 uM alone against prebound biotin-hMBP(90-102) on tethered HLA-DR1
[7] = molecular target: soluble HLA-DR1 (HLA-DR alpha truncated after Asn192 with a C-terminal nine amino acid HA epitope tail; HLA-DR1 beta truncated after Lys198), made in Baculovirus-infected insect cells (human); experiment: release ELISA as Table 36 (biotin-hMBP(90-102) left on tethered HLA-DR1); AE peptide 64 uM, without unlabeled hMBP(90-102)
[8] = molecular target: soluble HLA-DR1 (HLA-DR alpha truncated after Asn192 with a C-terminal nine amino acid HA epitope tail; HLA-DR1 beta truncated after Lys198), made in Baculovirus-infected insect cells (human); experiment: release ELISA as Table 36 (biotin-hMBP(90-102) left on tethered HLA-DR1); AE peptide 1 uM, with unlabeled hMBP(90-102) 250 uM
[9] = molecular target: soluble HLA-DR1 (HLA-DR alpha truncated after Asn192 with a C-terminal nine amino acid HA epitope tail; HLA-DR1 beta truncated after Lys198), made in Baculovirus-infected insect cells (human); experiment: release ELISA: soluble HLA-DR1 tethered by 12CA5 and preloaded with biotin-hMBP(90-102); AE peptide 64 uM, 1 h 37 C, no unlabeled peptide; biotin still bound read by avidin-HRP (1.0 = PBS control, 0.0 = no DR1; low value = released)
[10] = molecular target: soluble HLA-DR1 (HLA-DR alpha truncated after Asn192 with a C-terminal nine amino acid HA epitope tail; HLA-DR1 beta truncated after Lys198), made in Baculovirus-infected insect cells (human); experiment: release ELISA as Table 36 (biotin-hMBP(90-102) left on tethered HLA-DR1); AE peptide 1 uM, without unlabeled hMBP(90-102)
[11] = molecular target: soluble HLA-DR1 (HLA-DR alpha truncated after Asn192 with a C-terminal nine amino acid HA epitope tail; HLA-DR1 beta truncated after Lys198), made in Baculovirus-infected insect cells (human); experiment: release ELISA as Table 36 (biotin-hMBP(90-102) left on tethered HLA-DR1); AE peptide 64 uM, with unlabeled hMBP(90-102) 250 uM
[12] = molecular target: soluble HLA-DR1 (HLA-DR alpha truncated after Asn192 with a C-terminal nine amino acid HA epitope tail; HLA-DR1 beta truncated after Lys198), made in Baculovirus-infected insect cells (human); experiment: loading ELISA: empty tethered HLA-DR1 with biotin-hMBP(90-102) 50 uM and AE peptide 64 uM, 1 h 37 C; biotin bound read by avidin-HRP
[13] = molecular target: soluble HLA-DR1 (HLA-DR alpha truncated after Asn192 with a C-terminal nine amino acid HA epitope tail; HLA-DR1 beta truncated after Lys198), made in Baculovirus-infected insect cells (human); experiment: release ELISA as Table 36; AE101 1 uM, without unlabeled hMBP(90-102)
[14] = molecular target: soluble HLA-DR1 (HLA-DR alpha truncated after Asn192 with a C-terminal nine amino acid HA epitope tail; HLA-DR1 beta truncated after Lys198), made in Baculovirus-infected insect cells (human); experiment: exchange ELISA: tethered HLA-DR1 preloaded with unlabeled hMBP(90-102) 50 uM, washed; AE peptide plus biotin-hMBP(90-102) 50 uM, 1 h 37 C; biotin bound as fraction of positive control (overnight loading)
[15] = AE peptide 16 μM (second value)

Molecule | Relative Release (fraction of positive control o.d.) [7] | Relative Release (fraction of positive control o.d.) [8] | Relative Release (fraction of positive control o.d.) [9] | Relative Release (fraction of positive control o.d.) [10] | Relative Release (fraction of positive control o.d.) [11] | Relative Enhancement (of biotin-hMBP(90-102) binding to empty HLA-DR1) (relative to no AE peptide = 1) [12] | Relative Binding (of biotin-hMBP(90-102) to HLA-DR1) (fraction of positive control o.d.) [14] | also measured
Ac-LRMKlpk-NH2 [AE172] |  |  |  |  |  |  |  | Times Baseline Response, E^d ([1]; AE peptide 1 μM (fourth value)): 2; Times Baseline Response, E^d ([1]; AE peptide 4 μM (third value)): 2; Times Baseline Response, E^d [1, 15]: 7; Times Baseline Response, E^d ([1]; AE peptide 64 μM (first value)): 54; T cell response relative to baseline with PBS-pretreated APC (NONE = 1.0), E^d [2]: 1.1; T cell response relative to baseline with PBS-pretreated APC (NONE = 1.0), E^k [3]: 2.1; Times Baseline Response, E^k ([4]; AE peptide 1 μM (fourth value)): 2.8; Times Baseline Response, E^k ([4]; AE peptide 4 μM (third value)): 4.2; Times Baseline Response, E^k [4, 15]: 21.1; Times Baseline Response, E^k ([4]; AE peptide 64 μM (first value)): 46.2
N-terminally biotin-labeled human myelin basic protein peptide hMBP(90-102) (from UniProt P02686 90-102) |  |  |  |  |  |  |  | Relative Binding (fraction of positive control o.d.) [5]: 0.08
unlabeled human myelin basic protein peptide hMBP(90-102) (from UniProt P02686 90-102) |  |  |  |  |  |  |  | Relative Release (fraction of positive control o.d.) [6]: 0.81
YRMKLPKSAK [AE108] | 0.31 | 0 | 1.14 | 0.52 | 0.14 |  |  | 
YRMKLPKSAKPVSQMR [AE101] |  |  | -0.33 |  |  | 2.66 | 0.31 | Relative Release (fraction of positive control o.d.) [13]: 0.02
B1 | 0.58 | 0.35 |  | 0.51 | 0.21 |  |  | 
B2 | 0.5 | 0.09 |  | 0.64 | -0.19 | 1.84 | -0.12 | 
Ac-LRLKLPK-NH2 [AE206] | 0.08 | 0.03 |  | 0.58 | -0.29 | 2.57 | -0.13 | 
Ac-LRMKYPK-NH2 [AE235] | 0.81 | 0.48 | 0.79 | 1.05 | 0.6 | 0.61 | 0.15 | 
